*1 amine or outer side, *2 acyl side, *3 side chain or, on linkers, in order; H or OH if unused. Bridges are numbered along the chain shown (N, C = ends). [ ]: non-standard residue; d: D form. The star is where a group is joined. C20 diacid = O=C(O)CCCCCCCCCCCCCCCCCCC(=O)*; γGlu = O=C(O)[C@H](CCC(=O)[*:2])N[*:1]; Hyp = O=C(O)[C@@H]1C[C@@H](O)CN1; NMeI = CC[C@H](C)[C@H](NC)C(=O)O; Sar = CNCC(=O)O
Biological target: T1, human amylin receptor 3 (hAMYR3), hCTR2 co-expressed with human receptor activity modifying protein 3 (hRAMP3) (human, UniProt P30988 25-474; O60896 24-148)
T1 sequence (looked up) 1: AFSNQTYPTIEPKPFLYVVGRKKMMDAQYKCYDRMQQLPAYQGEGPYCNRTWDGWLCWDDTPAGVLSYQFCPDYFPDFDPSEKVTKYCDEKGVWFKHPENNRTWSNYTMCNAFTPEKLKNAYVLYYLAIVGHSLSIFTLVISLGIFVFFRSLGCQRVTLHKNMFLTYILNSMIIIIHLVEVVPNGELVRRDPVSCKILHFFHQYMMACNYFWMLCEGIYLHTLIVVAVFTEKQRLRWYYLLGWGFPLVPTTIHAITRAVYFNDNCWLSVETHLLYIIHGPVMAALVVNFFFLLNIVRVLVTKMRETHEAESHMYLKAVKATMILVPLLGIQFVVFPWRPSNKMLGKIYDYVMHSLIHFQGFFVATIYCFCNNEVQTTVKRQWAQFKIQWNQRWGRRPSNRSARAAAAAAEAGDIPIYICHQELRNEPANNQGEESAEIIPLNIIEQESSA
T1 sequence (looked up) 2: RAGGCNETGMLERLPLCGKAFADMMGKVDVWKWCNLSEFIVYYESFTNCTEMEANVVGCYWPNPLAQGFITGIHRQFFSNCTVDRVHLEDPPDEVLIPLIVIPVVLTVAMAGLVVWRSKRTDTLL
Assay: cell-based or functional assay

Binder | hAMYR3 EC50 (nM); cAMP induction
{C20 diacid}-[γGlu]RCNTATCATQRLANFLHRSSF[Sar]A[NMeI]LSSTEVGSETP-NH2 (disulfide 3-8) [[19CD]-isoGlu-R-C( )-NTAT-C( )-ATQRLANFLHRSSF-Gly(Me)-A-Ile(Me)-LSSTEVGSETP-NH2 (Compd. 3)] | 0.2 nM
{C20 diacid}-[γGlu]RCGTATCATERLAHFLNRSSF[Sar]A[NMeI]LSSTEVGSST[Hyp]-NH2 (disulfide 3-8; SMILES CC[C@H](C)[C@@H](C(=O)N[C@@H](CC(C)C)C(=O)N[C@@H](CO)C(=O)N[C@@H](CO)C(=O)N[C@H](C(=O)N[C@@H](CCC(=O)O)C(=O)N[C@H](C(=O)NCC(=O)N[C@@H](CO)C(=O)N[C@@H](CO)C(=O)N[C@H](C(=O)N1C[C@H](O)C[C@H]1C(N)=O)[C@@H](C)O)C(C)C)[C@@H](C)O)N(C)C(=O)[C@H](C)NC(=O)CN(C)C(=O)[C@H](Cc1ccccc1)NC(=O)[C@H](CO)NC(=O)[C@H](CO)NC(=O)[C@H](CCCNC(=N)N)NC(=O)[C@H](CC(N)=O)NC(=O)[C@H](CC(C)C)NC(=O)[C@H](Cc1ccccc1)NC(=O)[C@H](Cc1c[nH]cn1)NC(=O)[C@H](C)NC(=O)[C@H](CC(C)C)NC(=O)[C@H](CCCNC(=N)N)NC(=O)[C@H](CCC(=O)O)NC(=O)[C@@H](NC(=O)[C@H](C)NC(=O)[C@@H]1CSSC[C@H](NC(=O)[C@H](CCCNC(=N)N)NC(=O)CC[C@H](NC(=O)CCCCCCCCCCCCCCCCCCC(=O)O)C(=O)O)C(=O)NCC(=O)N[C@@H]([C@@H](C)O)C(=O)N[C@@H](C)C(=O)N[C@@H]([C@@H](C)O)C(=O)N1)[C@@H](C)O) [[19CD]-isoGlu-R-C( )-GTAT-C( )-ATERLAHFLNRSSF-Gly(Me)-A-Ile(Me)-LSSTEVGSST-Hyp-NH2 (Compd. 29)] | 0.12 nM
{C20 diacid}-[γGlu]RCGTATCATERLAHFLHRSSF[Sar]A[NMeI]LSSTEVGSST[Hyp]-NH2 (disulfide 3-8; SMILES CC[C@H](C)[C@@H](C(=O)N[C@@H](CC(C)C)C(=O)N[C@@H](CO)C(=O)N[C@@H](CO)C(=O)N[C@H](C(=O)N[C@@H](CCC(=O)O)C(=O)N[C@H](C(=O)NCC(=O)N[C@@H](CO)C(=O)N[C@@H](CO)C(=O)N[C@H](C(=O)N1C[C@H](O)C[C@H]1C(N)=O)[C@@H](C)O)C(C)C)[C@@H](C)O)N(C)C(=O)[C@H](C)NC(=O)CN(C)C(=O)[C@H](Cc1ccccc1)NC(=O)[C@H](CO)NC(=O)[C@H](CO)NC(=O)[C@H](CCCNC(=N)N)NC(=O)[C@H](Cc1c[nH]cn1)NC(=O)[C@H](CC(C)C)NC(=O)[C@H](Cc1ccccc1)NC(=O)[C@H](Cc1c[nH]cn1)NC(=O)[C@H](C)NC(=O)[C@H](CC(C)C)NC(=O)[C@H](CCCNC(=N)N)NC(=O)[C@H](CCC(=O)O)NC(=O)[C@@H](NC(=O)[C@H](C)NC(=O)[C@@H]1CSSC[C@H](NC(=O)[C@H](CCCNC(=N)N)NC(=O)CC[C@H](NC(=O)CCCCCCCCCCCCCCCCCCC(=O)O)C(=O)O)C(=O)NCC(=O)N[C@@H]([C@@H](C)O)C(=O)N[C@@H](C)C(=O)N[C@@H]([C@@H](C)O)C(=O)N1)[C@@H](C)O) [[19CD]-isoGlu-R-C( )-GTAT-C( )-ATERLAHFLHRSSF-Gly(Me)-A-Ile(Me)-LSSTEVGSST-Hyp-NH2 (Compd. 30)] | 0.12 nM
{C20 diacid-γGlu}-RCGTATCATERLAHFLVRSSF[Sar]A[NMeI]LSSTEVGSST[Hyp]-NH2 (disulfide 2-7; SMILES CC[C@H](C)[C@@H](C(=O)N[C@@H](CC(C)C)C(=O)N[C@@H](CO)C(=O)N[C@@H](CO)C(=O)N[C@H](C(=O)N[C@@H](CCC(=O)O)C(=O)N[C@H](C(=O)NCC(=O)N[C@@H](CO)C(=O)N[C@@H](CO)C(=O)N[C@H](C(=O)N1C[C@H](O)C[C@H]1C(N)=O)[C@@H](C)O)C(C)C)[C@@H](C)O)N(C)C(=O)[C@H](C)NC(=O)CN(C)C(=O)[C@H](Cc1ccccc1)NC(=O)[C@H](CO)NC(=O)[C@H](CO)NC(=O)[C@H](CCCNC(=N)N)NC(=O)[C@@H](NC(=O)[C@H](CC(C)C)NC(=O)[C@H](Cc1ccccc1)NC(=O)[C@H](Cc1c[nH]cn1)NC(=O)[C@H](C)NC(=O)[C@H](CC(C)C)NC(=O)[C@H](CCCNC(=N)N)NC(=O)[C@H](CCC(=O)O)NC(=O)[C@@H](NC(=O)[C@H](C)NC(=O)[C@@H]1CSSC[C@H](NC(=O)[C@H](CCCNC(=N)N)NC(=O)CC[C@H](NC(=O)CCCCCCCCCCCCCCCCCCC(=O)O)C(=O)O)C(=O)NCC(=O)N[C@@H]([C@@H](C)O)C(=O)N[C@@H](C)C(=O)N[C@@H]([C@@H](C)O)C(=O)N1)[C@@H](C)O)C(C)C) [[19CD]-isoGlu-R-C( )-GTAT-C( )-ATERLAHFLVRSSF-Gly(Me)-A-Ile(Me)-LSSTEVGSST-Hyp-NH2 (Compd. 31)] | 0.29 nM
{C20 diacid}-[γGlu]RCGTATCATERLAHFLQRSSF[Sar]A[NMeI]LSSTEVGSFT[Hyp]-NH2 (disulfide 3-8; SMILES CC[C@H](C)[C@@H](C(=O)N[C@@H](CC(C)C)C(=O)N[C@@H](CO)C(=O)N[C@@H](CO)C(=O)N[C@H](C(=O)N[C@@H](CCC(=O)O)C(=O)N[C@H](C(=O)NCC(=O)N[C@@H](CO)C(=O)N[C@@H](Cc1ccccc1)C(=O)N[C@H](C(=O)N1C[C@H](O)C[C@H]1C(N)=O)[C@@H](C)O)C(C)C)[C@@H](C)O)N(C)C(=O)[C@H](C)NC(=O)CN(C)C(=O)[C@H](Cc1ccccc1)NC(=O)[C@H](CO)NC(=O)[C@H](CO)NC(=O)[C@H](CCCNC(=N)N)NC(=O)[C@H](CCC(N)=O)NC(=O)[C@H](CC(C)C)NC(=O)[C@H](Cc1ccccc1)NC(=O)[C@H](Cc1c[nH]cn1)NC(=O)[C@H](C)NC(=O)[C@H](CC(C)C)NC(=O)[C@H](CCCNC(=N)N)NC(=O)[C@H](CCC(=O)O)NC(=O)[C@@H](NC(=O)[C@H](C)NC(=O)[C@@H]1CSSC[C@H](NC(=O)[C@H](CCCNC(=N)N)NC(=O)CC[C@H](NC(=O)CCCCCCCCCCCCCCCCCCC(=O)O)C(=O)O)C(=O)NCC(=O)N[C@@H]([C@@H](C)O)C(=O)N[C@@H](C)C(=O)N[C@@H]([C@@H](C)O)C(=O)N1)[C@@H](C)O) [[19CD]-isoGlu-R-C( )-GTAT-C( )-ATERLAHFLQRSSF-Gly(Me)-A-Ile(Me)-LSSTEVGSFT-Hyp-NH2 (Compd. 32)] | 0.23 nM
{C20 diacid}-[γGlu]RCGTATCATERLAHFLNRSSF[Sar]A[NMeI]LSSTEVGSFT[Hyp]-NH2 (disulfide 3-8; SMILES CC[C@H](C)[C@@H](C(=O)N[C@@H](CC(C)C)C(=O)N[C@@H](CO)C(=O)N[C@@H](CO)C(=O)N[C@H](C(=O)N[C@@H](CCC(=O)O)C(=O)N[C@H](C(=O)NCC(=O)N[C@@H](CO)C(=O)N[C@@H](Cc1ccccc1)C(=O)N[C@H](C(=O)N1C[C@H](O)C[C@H]1C(N)=O)[C@@H](C)O)C(C)C)[C@@H](C)O)N(C)C(=O)[C@H](C)NC(=O)CN(C)C(=O)[C@H](Cc1ccccc1)NC(=O)[C@H](CO)NC(=O)[C@H](CO)NC(=O)[C@H](CCCNC(=N)N)NC(=O)[C@H](CC(N)=O)NC(=O)[C@H](CC(C)C)NC(=O)[C@H](Cc1ccccc1)NC(=O)[C@H](Cc1c[nH]cn1)NC(=O)[C@H](C)NC(=O)[C@H](CC(C)C)NC(=O)[C@H](CCCNC(=N)N)NC(=O)[C@H](CCC(=O)O)NC(=O)[C@@H](NC(=O)[C@H](C)NC(=O)[C@@H]1CSSC[C@H](NC(=O)[C@H](CCCNC(=N)N)NC(=O)CC[C@H](NC(=O)CCCCCCCCCCCCCCCCCCC(=O)O)C(=O)O)C(=O)NCC(=O)N[C@@H]([C@@H](C)O)C(=O)N[C@@H](C)C(=O)N[C@@H]([C@@H](C)O)C(=O)N1)[C@@H](C)O) [[19CD]-isoGlu-R-C( )-GTAT-C( )-ATERLAHFLNRSSF-Gly(Me)-A-Ile(Me)-LSSTEVGSFT-Hyp-NH2 (Compd. 33)] | 0.15 nM

— patent US20160272693A1 (ZEALAND PHARMA A S, published 2016)
